Patent US20230372448A1, “THERAPEUTIC USE OF LONG-ACTING CONJUGATE OF TRIPLE AGONIST ACTING ON ALL OF GLUCAGON, GLP-1 AND GIP RECEPTORS AGAINST MULTIPLE SCLEROSIS” (HANMI PHARM. CO. ,LTD., priority 2020, published 2023)
Positions of bridges follow the written chain, without caps; N, C: chain ends. Non-standard residues stand in square brackets, D forms with d. No end group written: not given here. *: point of attachment. Acetyl(2-(4-imidazolyl)) = O=C(Cc1c[nH]cn1)*; Aib = CC(C)(N)C(=O)O

T1: human GIP receptor (human, UniProt P48546 22-466)
T1 sequence (looked up): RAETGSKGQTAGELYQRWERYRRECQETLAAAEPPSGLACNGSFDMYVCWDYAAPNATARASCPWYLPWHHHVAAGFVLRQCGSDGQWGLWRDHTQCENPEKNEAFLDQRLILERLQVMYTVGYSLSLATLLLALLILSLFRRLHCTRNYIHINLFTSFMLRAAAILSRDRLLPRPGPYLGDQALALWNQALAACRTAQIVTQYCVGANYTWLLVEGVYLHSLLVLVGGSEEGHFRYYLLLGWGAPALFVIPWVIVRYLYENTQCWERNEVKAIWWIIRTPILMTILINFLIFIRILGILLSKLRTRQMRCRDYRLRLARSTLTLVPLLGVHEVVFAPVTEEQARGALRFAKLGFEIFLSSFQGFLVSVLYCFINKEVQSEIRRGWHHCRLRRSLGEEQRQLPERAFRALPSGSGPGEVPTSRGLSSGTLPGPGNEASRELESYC


What was measured:
Test in all cases: cell-based or functional assay
[1] = target: T1, human GIP receptor
[2] = target: human GLP-1 receptor (human, UniProt P43220 24-463)
[3] = target: human GCG receptor (human, UniProt P47871 26-477)
Sequence of human GCG receptor (P47871 26-477): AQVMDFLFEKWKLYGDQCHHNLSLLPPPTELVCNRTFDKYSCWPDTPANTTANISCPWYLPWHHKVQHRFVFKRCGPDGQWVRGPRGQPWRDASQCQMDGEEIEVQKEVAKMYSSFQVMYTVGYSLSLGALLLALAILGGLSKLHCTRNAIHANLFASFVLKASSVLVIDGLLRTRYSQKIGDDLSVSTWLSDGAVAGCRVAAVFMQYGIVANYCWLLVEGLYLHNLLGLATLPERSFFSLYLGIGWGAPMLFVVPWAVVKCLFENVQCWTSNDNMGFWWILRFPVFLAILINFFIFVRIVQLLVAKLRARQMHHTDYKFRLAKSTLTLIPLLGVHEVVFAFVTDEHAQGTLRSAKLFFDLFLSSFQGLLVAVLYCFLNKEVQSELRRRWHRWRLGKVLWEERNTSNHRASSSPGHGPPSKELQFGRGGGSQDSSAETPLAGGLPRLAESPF

| Binder | In vitro activity (%) compared with native peptide: vs GIP [1] [%] | In vitro activity (%) compared with native peptide: vs GLP-1 [2] [%] | In vitro activity (%) compared with native peptide: vs Glucagon [3] [%] |
| --- | --- | --- | --- |
| {Acetyl(2-(4-imidazolyl))}-[Aib]QGTFTSDYSKYLDEKRQKEFVQWLLNTKC (bridge 15-19; not fully specified) [triple agonist of SEQ ID NO: 88] | < 0.1 | 9.6 | 0.3 |
| {Acetyl(2-(4-imidazolyl))}-[Aib]QGTFTSDYSKYLDEKRQKEFVQWLLDTKC (bridge 15-19; not fully specified) [triple agonist of SEQ ID NO: 89] | < 0.1 | 7.1 | 0.7 |
| H[Aib]QGTFTSDVSKYLDGQAAQEFVAWLLAGC (not fully specified) [triple agonist of SEQ ID NO: 9] | < 0.1 | 32.1 | 0.13 |
| H[Aib]EGTFTSDYSIAMDEIHQKDFVNWLLAQKC (bridge 16-20; not fully specified) [triple agonist of SEQ ID NO: 79] | 1.4 | 41.5 | 4.9 |
| Y[Aib]QGTFTSDYSKYLDEKRAKDFVQWLLDHHPSSGQPPPSC (bridge 16-20; not fully specified) [triple agonist of SEQ ID NO: 76] | 11.7 | 10.3 | 47.6 |
| H[Aib]QGTFTSDYSKYLDEKRQKEFVQWLLDTKC (bridge 16-20; not fully specified) [triple agonist of SEQ ID NO: 78] | 0.12 | 51 | 14 |
| {Acetyl(2-(4-imidazolyl))}-[Aib]QGTFTSDYSKYLDECRAKEFVQWLLDHHPSSGQPPPS (bridge 15-19; not fully specified) [triple agonist of SEQ ID NO: 73] | 3 | 22.6 | 5.4 |
| Y[Aib]QGTFTSDYSKYLDERACKDFVQWLLDHHPSSGQPPPS (bridge 16-20; not fully specified) [triple agonist of SEQ ID NO: 71] | 94.7 | 90.1 | 12.7 |
| {Acetyl(2-(4-imidazolyl))}-[Aib]QGTFTSDYSKYLDEKRQKEFVQWLLDTC (bridge 15-19; not fully specified) [triple agonist of SEQ ID NO: 82] | < 0.1 | 9.5 | 1.1 |
| {Acetyl(2-(4-imidazolyl))}-[Aib]EGTFTSDYSIAMDEIHQKDFVDWLLAEC (bridge 15-19; not fully specified) [triple agonist of SEQ ID NO: 84] | < 0.1 | 4.2 | < 0.1 |
| Y[Aib]QGTFTSDCSKYLDERAAKDFVQWLLDHHPSSGQPPPS (bridge 16-20; not fully specified) [triple agonist of SEQ ID NO: 72] | 1.6 | 11.5 | 1 |
| {Acetyl(2-(4-imidazolyl))}-[Aib]QGTFTSDYSIAMDEIHQKDFVNWLLAQC (bridge 15-19; not fully specified) [triple agonist of SEQ ID NO: 85] | 0.3 | 4.3 | < 0.1 |
| Y[Aib]QGTFTSDYSKYLDEKAAKEFVQWLLDHHPSSGQPPPSC (bridge 16-20; not fully specified) [triple agonist of SEQ ID NO: 75] | 18 | 35.1 | 8.5 |
| {Acetyl(2-(4-imidazolyl))}-[Aib]QGTFTSDYSIAMDEIHQKDFVNWLLNTC (bridge 15-19; not fully specified) [triple agonist of SEQ ID NO: 87] | < 0.1 | 0.9 | < 0.1 |
| H[Aib]EGTFTSDYSIAMDEIHQKDFVDWLLAEKC (bridge 16-20; not fully specified) [triple agonist of SEQ ID NO: 80] | 0.1 | 8.1 | 0 |
| {Acetyl(2-(4-imidazolyl))}-[Aib]QGTFTSDYSKYLDEKRQKEFVNWLLAQC (bridge 15-19; not fully specified) [triple agonist of SEQ ID NO: 86] | 0.2 | 28.4 | 0.4 |
| {Acetyl(2-(4-imidazolyl))}-[Aib]QGTFTSDYSKYLDEKRQKEFVQWLLNTC (bridge 15-19; not fully specified) [triple agonist of SEQ ID NO: 81] | < 0.1 | 7.8 | 0.3 |
| Y[Aib]QGTFTSDYSKYLDEKAAKDFVQWLLDHHPSSGQPPPSC (bridge 16-20; not fully specified) [triple agonist of SEQ ID NO: 77] | 35.5 | 38.7 | 12.2 |
| H[Aib]QGTFTSDVSKYLDGQAAQEFVAWLLKGC (not fully specified) [triple agonist of SEQ ID NO: 8] | < 0.1 | 14.2 | 0.1 |
| {Acetyl(2-(4-imidazolyl))}-[Aib]QGTFTSDYSKCLDEKRAKEFVQWLLDHHPSSGQPPPS (bridge 15-19; not fully specified) [triple agonist of SEQ ID NO: 74] | 1 | 12.9 | 0.9 |
